The test system of the data set is MS2 coat protein. Nature of the data set: apparent KD of MS2 coat protein; higher = weaker reporter binding. To be noted: Eterna round: R107. The gist of the method: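 On-chip transcription from Illumina sequencing clusters produced the designed RNA switches. These were titrated with SNAP-549-labelled MS2 coat protein (twofold steps, 0.7 or 1.5 nM to 3 µM) in 100 mM Tris-HCl pH 7.5, 80 mM KCl, 4 mM MgCl2, with or without constant ligand. The apparent KD given is the per-design median of normalised cluster binding-curve fits.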

Where [1] appears, read: input ligand: theophylline 20 uM.
[2] abbreviates: input ligand: theophylline 2 mM.
[3] abbreviates: input ligand: tryptophan 2.4 mM.

For the sequence “GAUAUGGAAACAUGUCAGAUCCUUACCGGUCGAGGACCGGUACGGCCGCCACUCGGAAAUAUUGUACAUGAGGAUCACCCAUGUA [Ex Tryptophan A 18]”, the “apparent KD of MS2 coat protein” value (input ligand: arginine 13.2 mM) turned out to be 0.0141 µM, the “apparent KD of MS2 coat protein” value under setting [1] was determined as 0.0161 µM and the “apparent KD of MS2 coat protein” value under setting [2] was 0.0161 µM.
In the case of “GAUCCACAUGAGGAUCACCCAUGUGAGGAUACCAGUACCAGAUCCUACCCUUGGCAGCCUAACCUUCAUUCAACACGAAUAAGAA [theeternabot_sameState_MS2_Theo_A_20]”, the “apparent KD of MS2 coat protein” value reads like this: (input ligand: arginine 13.2 mM) 0.0138 µM; under setting [1], 0.0167 µM; under setting [3], 0.015 µM.
In the same order, the values of “GAUGAUAUUGCAGAUACCAGACACAUGAGGAUCACCCAUGUCGCUGGGUUACUGGGUCGUGUCCCUUGGCAGCUGCGAUAUCAUC [Belize]” are 0.0336 µM, 0.0892 µM and 0.0421 µM.
Consider “GAUUGCAUCGAUUCUCCACUCGCACCUGAUACCAGCGAUAGAAUUCGCCCUUGGCAGCAGUACACAUGAGGAUCACCCAUGUUAU [theeternabot_exclusion_MS2_Theo_A_20]”, for which the “apparent KD of MS2 coat protein” value turned out to be 0.0255 µM (input ligand: arginine 13.2 mM), 0.0424 µM under setting [1] and 0.035 µM under setting [3].
As for “GAUUGGAUUUGAAGGAGCGUCGAAAAUGGGUAAACAUGAGGAUCACCCAUGUAAAGGGAACGACAGGUAGGUCGCAAAUUUAAUC [AstromonsSSArgB#31]”, the “apparent KD of MS2 coat protein” value amounted to 0.0847 µM (input ligand: arginine 13.2 mM); 0.111 µM (input ligand: none); 0.148 µM under setting [1]; 0.213 µM under setting [2]; 0.162 µM under setting [3].
In the same order, the values of “GAUUUAACAAAAGUUGGAUCAGUGGGUGAACGAGGACCGGUACGGCCGCCACUCGGACAUGAGGAUCACCCAUGUCCAUGUGAAA [AstrosExyTryA#19]” are 0.0472 µM, 0.129 µM, 0.167 µM, 0.121 µM and 0.0771 µM.
Regarding “GCACAACAUGAGGAUCACCCAUGUCGAGAUACCAGAACAUAUAUAUUCCCUUGGCAGCUCACACCUUUAAUGUAAAAUUCUUUGG [theeternabot_sameState_MS2_Theo_A_47]”, the “apparent KD of MS2 coat protein” value is 0.012 µM (input ligand: arginine 13.2 mM), 0.0159 µM under setting [1] and 0.0139 µM under setting [3].
With “GCACCAGGUACGGAUACCAGACGUUGCCAAACAGGGUGACAUGAGGAUCACCCAUGUACUGUCCCUUGGCAGCCGUACCUGGUGC [EThB NP+V+V2 #4 +-Same Structure]”, the “apparent KD of MS2 coat protein” value by setting is: (input ligand: arginine 13.2 mM) 0.0202 µM; under setting [1], 0.053 µM; under setting [3], 0.0226 µM.
In the case of “GCAUCCUAGUCGGCCGCCACUACAACAUGAGGAUCACCCAUGUGUGGGAGAUCCGUCCUACGAAGUAGGACCGGGACUAGGAUGC [(T1)-(M1)-(M2)-(T)''-(M)'-(T)'-(T2)_Design5_2/18/17]”, the “apparent KD of MS2 coat protein” value was determined as 0.11 µM (input ligand: arginine 13.2 mM), 0.337 µM under setting [1] and 0.324 µM under setting [2].
With “GCCAUCGGCGGAAGCCGAUGGGAUACAGAAGGAGCGCGGAUUAACGCAGGUAGGUCGCUGGACAUGAGGAUCACCCAUGUAAUAG [SSAA #9]”, the “apparent KD of MS2 coat protein” value runs as follows: (input ligand: arginine 13.2 mM) 0.0192 µM; (input ligand: none) 0.0228 µM; under setting [1], 0.0419 µM; under setting [2], 0.0225 µM; under setting [3], 0.0185 µM.
The corresponding values for “GCGCUCGACAGAAGGAGCGGCGACGUCGGUGUCAGGAGGCACAUGAGGAUCACCCAUGUCAGCCAGGUAGGUCGCUGUCGAUCGC [Arquce]” are 0.0228 µM, 0.0373 µM, 0.0419 µM, 0.0401 µM and 0.0368 µM.
For “GCGGAAUAAUCGGCCGCCACUAUGAGACAGGAAACUGUCACAUGAGGAUCACCCAUGUAUCCUCAUAGGACCGGGAUUAAAACGC [Melting point difference]”, the “apparent KD of MS2 coat protein” value reads like this: (input ligand: arginine 13.2 mM) 0.0768 µM; under setting [1], 0.109 µM; under setting [2], 0.1 µM.
The corresponding values for “GCGGAAUAAUCGGCCGCCACUAUGAUAUAGGAAACUAUAACAUGAGGAUCACCCAUGUAUCCUCAUAGGACCGGGAUUAAAACGC [TrypB - CS]” are 0.0397 µM, 0.121 µM and 0.101 µM.
Take “GCGGACAUGAGGAUCACCCAUGUAAAUCCUCGAGGACCGGUACGGCCGCCACUCGAACGAGUGGCGCGCGCGCGCGCGCGCGCGC [aAa]”: the “apparent KD of MS2 coat protein” value is 0.0253 µM (input ligand: arginine 13.2 mM); 0.0405 µM (input ligand: none); 0.119 µM under setting [1]; 0.0789 µM under setting [2]; 0.0452 µM under setting [3].
The corresponding values for “GCUAGGUCUACGGCCGCCACUAGACGUGGGUUAAACAUGAGGAUCACCCAUGUGCUACAGGCGCAUAGGACCGGGUAGACCUAGC [SSTB NP+V+V2 #9 +-Same Structure]” are 0.0865 µM, 0.494 µM, 0.586 µM, 0.696 µM and 0.0637 µM.
In the same order, the values of “GCUAGUGGCAGAAGGAGCGAGGCCCGCGCACAUAACAUGAGGAUCACCCAUGUGGCGAGACCUCAGGUAGGUCGCUGCCACUAGC [EAB NP+V2 #1]” are 0.012 µM, 0.0114 µM, 0.0258 µM, 0.0142 µM and 0.0124 µM.
In the same order, the values of “GCUAUGGCUGGAAGGAGCGUGAAUUUCAGCGAACAUGAGGAUCACCCAUGUAAGGAUAUGGCACAGGUAGGUCGCUAGCCAUAGC [#19 Same State - Arginine B]” are 0.0136 µM, 0.0143 µM, 0.0212 µM, 0.0151 µM and 0.0134 µM.
Take “GCUGCCAUACGAAGGAGCGCUGCUGCGAUGUGGCGAACAUGAGGAUCACCCAUGUGGCAGCGGCAGGUAGGUCGCGUAUGGCAGC [#02 Exclusion - Arginine B]”: the “apparent KD of MS2 coat protein” value runs as follows: (input ligand: arginine 13.2 mM) 0.0452 µM; (input ligand: none) 0.166 µM; under setting [1], 0.33 µM; under setting [2], 0.297 µM; under setting [3], 0.206 µM.
In the same order, the values of “GCUGUGAAGUCGGCCGCCACUGGUUAGUUUAACCUCAUGUAACAUGAGGAUCACCCAUGUAAUGUCAGGACCGGGACAACAGCAA [JR_ExcTryptoB_Sub016]” are 0.131 µM, 0.145 µM, 0.236 µM, 0.289 µM and 0.357 µM.
As to “GCUGUGAAGUCGGCCGCCACUGGUUAGUUUUACCUCAUGUAACAUGAGGAUCACCCAUGUAAUUUCAGGACCGGGACAACAGCAA [JR_ExcTryptoB_Sub017]”, the “apparent KD of MS2 coat protein” value reads like this: (input ligand: arginine 13.2 mM) 0.135 µM; under setting [1], 0.588 µM; under setting [2], 0.853 µM.
As to “GCUUGCUUGUAAGGUUCUGUCCGGCGUCGUCGAGGACCGGUACGGCCGCCACUCGCGCGUUUACAUGAGGAUCACCCAUGUCAUG [theeternabot_exclusion_MS2_Trp_A_49]”, the “apparent KD of MS2 coat protein” value runs as follows: (input ligand: arginine 13.2 mM) 0.0343 µM; (input ligand: none) 0.0406 µM; under setting [1], 0.0387 µM; under setting [2], 0.035 µM; under setting [3], 0.0475 µM.
The corresponding values for “GGAAACCAAAGCGAUACCAGCGUACAUGAAAAGAGCGAAAACAUGAGGAUCACCCAUGUACGCCCUUGGCAGCGCAAAACCAAGG” are 0.0214 µM, 0.0443 µM, 0.0508 µM, 0.103 µM and 0.0333 µM.
In the same order, the values of “GGACAUGCAGGAAGGAGCGACACAGCAGAAACUGCAAAUCCUCCACACGAGGAUCACCCGUGUCAGGUAGGUCGCCUGCAUGUCG [ArgXB 14 #Zipper #MS2Left #StaticStem #Blueprint]” are 0.0767 µM, 0.0895 µM, 0.0991 µM, 0.126 µM and 0.0802 µM.
In the same order, the values of “GGACUAACCAGAAGGAGCGACACGCAGAAACUGCAAAUUCCUCCACACGAGGAUCACCCGUGUCAGGUAGGUCGCUGGUUAGUCG” are 0.0278 µM, 0.024 µM, 0.0311 µM, 0.0284 µM and 0.0222 µM.
With “GGACUAACCAGAAGGAGCGGCACGCAGAAACUGCAAAUUCCUCCACACGAGGAUCACCCGUGUCAGGUAGGUCGCUGGUUAGUCG”, the “apparent KD of MS2 coat protein” value is, setting by setting: (input ligand: arginine 13.2 mM) 0.0336 µM; (input ligand: none) 0.0215 µM; under setting [1], 0.0306 µM; under setting [2], 0.0276 µM; under setting [3], 0.0231 µM.
For the sequence “GGACUCGUCACGGCCGCCACUGCGGUGGUGUGACAUGAGGAUCACCCAUGUUGUCAUGCGGCCCUUAGGACCGGGUGUCGCGUCC [#1 Exclusion - Tryptophan B Attempt #25 (HarryS)]”, the “apparent KD of MS2 coat protein” value stood at 0.0497 µM (input ligand: arginine 13.2 mM), 0.1 µM under setting [1] and 0.0938 µM under setting [2].
Regarding “GGAUAGGACACGGCCGCCACUACCUAGGAUACUAGCAACAUUUGGGUGCACGAGGAUCACCCGUGUAGGACCGGGUGUCCUAUCG”, the “apparent KD of MS2 coat protein” value was found to be 0.202 µM (input ligand: arginine 13.2 mM); 0.0725 µM (input ligand: none); 0.115 µM under setting [1]; 0.102 µM under setting [2]; 0.291 µM under setting [3].
In the same order, the values of “GGCACCAGGAGAAGGAGCGUGAAGACAUGAGGAUCACCCAUGUAGAGGCCCGUACUGGGUUCGCAGGUAGGUCGCUCCUGGUGCC [#1 Same State - Arginine B Attempt #13 (HarryS)]” are 0.0221 µM, 0.0229 µM, 0.0392 µM, 0.0287 µM and 0.0299 µM.

The values are drawn from the supplement of paper PMC9170038.
